Target: HuR (Human antigen R, ELAVL1) (UniProt Q15717 Q15717:1-326)
Assay: SPR; localized SPR (LSPR) on gold nanoparticle arrays; sizable red shift on HuR addition; inhibitor CMLD-1 disrupted binding (10 nm leftward shift)
Details: tags: Novus Biologicals H00001994-P01; tethered by base pairing to thiolated ssDNA on gold nanoparticles
Experimental: Next a target RNA strand containing a DNA hybridizing region, which binds via base pair matching with the ssDNA on the nanoparticle, and a hairpin loop containing a HuR target binding site. The specific target RNA strand used (SEQ ID NO 7) contains a specific HuR binding motif, has the RNA sequence 5′-GCG-AAU-UGG-GCC-CGA-CGU-CGC-AUG-GCU-UUU-AUU-UAU-UUU-GCA-UGG-CCG-CGG-GAU-3′, and was from Integrated DNA Technologies (IDT). Last, the HuR protein is added and binds to its target site withing the RNA hairpin loop. The specific HuR protein used was a recombinant HuR protein from Novus Biologicals (product #:H00001994-P01). For each step of the assembly, sizable LSPR shifts were observed, confirming our ability to quantitatively measure the expected binding at each step (FIG. 11A-C).

Chain of HuR (Human antigen R, ELAVL1) (Q15717 whole entry, one chain of several): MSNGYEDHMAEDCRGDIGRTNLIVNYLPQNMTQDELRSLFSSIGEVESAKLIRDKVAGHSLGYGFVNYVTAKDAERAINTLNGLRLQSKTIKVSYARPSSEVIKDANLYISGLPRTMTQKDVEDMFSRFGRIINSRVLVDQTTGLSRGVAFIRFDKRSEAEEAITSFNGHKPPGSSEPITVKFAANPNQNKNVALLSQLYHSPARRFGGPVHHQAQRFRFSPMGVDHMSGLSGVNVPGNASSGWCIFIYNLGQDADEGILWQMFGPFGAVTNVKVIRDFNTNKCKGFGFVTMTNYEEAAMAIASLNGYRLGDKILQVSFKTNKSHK

B1: HuR target RNA with DNA-hybridizing region and hairpin loop (ssRNA)
RNA: GCGAAUUGGGCCCGACGUCGCAUGGCUUUUAUUUAUUUUGCAUGGCCGCGGGAU
- binding result: binds

From US20190117772, “METHODS FOR THE TREATMENT OF CARDIAC HYPERTROPHY” (UNIVERSITY OF CINCINNATI, published 2019)
